According to patent publication US20090263370A1, “METHODS FOR TREATING TACHYKININ-MEDIATED DISEASES WITH CHOLINESTERASE” (priority 2006, published 2009):
Values joined by “and” are separate entries in the source; they are usually repeats but may differ in a detail not shown here. Identical values can stand only once.

Key:
Substance P (SP) = test: Hydrolysis of Substance P (SP) by cholinesterase, flight mass spectrometry; type: biochemical; conditions: for first restriction site: SP C-terminal
Description: Hydrolysis of SP was performed by acetylcholinesterase and butyrylcholinesterase separately.
1) Butyrylcholinesterase, specific activity 200 U, 50 mg of dry powder was dissolved in 5 mL of aqueous solution of iron(III) (double distilled water, Fe^+3 content, 1 mg/L) and centrifuged at 10,000 r/min for 4 minutes;
2) Butyrylcholinesterase, specific activity 200 U, 50 mg of dry powder was dissolved in 5 mL of double distilled water and centrifuged at 10,000 r/min for 4 minutes;
3) Acetylcholinesterase, specific activity 300 U, 20 mg of dry powder was dissolved in 1 mL of double distilled water and centrifuged at 10,000 r/min for 4 minutes.
SP, with purity 98%, in an aqueous solution at a concentration 0.5 μg/mL.
3. Reaction 100 μL of the substrate and 100 μL of enzyme were mixed, and the initial reaction temperature was 22° C.
Flight mass spectrometry: 1 μL of matrix (CHCA) and 1 μL of the reactant were mixed, and the mixture was directly assayed by flight mass spectrometry.

[1] = tested on: patients with summer diarrhea; test: Prevention and treatment of summer diarrhea; type: in vivo; conditions: 0.5 mL of 200 U aqueous solution in 3 mL cold water, rinsed in mouth and swallowed, repeated after two hours
Description: To 0.5 mL of butyrylcholinesterase (enzyme activity 200 U) aqueous solution, 3 mL of cold water was added. A portion of the solution was placed into the mouth of a patient, and lightly rinsed for 5-10 minutes. Then, the solution was swallowed. Two hours later, the previous steps were repeated.

Wister rats = test: Anti-inflammatory experiment with adjuvant arthritis rats; type: in vivo
Text: (§1) 1. Materials and Reagents
1) Reagents: butyrylcholinesterase aqueous solution (activity: 300 U per mL solution) prepared following the method of Example 2; Fenbid liniment (ibuprofen), manufactured by GlaxoSmithKline (China) Investment Co, Ltd., Product batch number: 04050471.
2) Animals: Wister rats, 30, weight 200±2 g, of either sex, from Laboratory Animal Center, Sun Yat-sen University.
Wister rats were randomly grouped into 3 groups with each group of 10. Following the method taught in Pharmacological Experimental Methodology (The third edition) (Xu Shuyun, et al., People's Health Publishing House, 2002, 1), each rat was administered 0.1 mL of Freund's adjuvant (FCA) in the right hindlimb by intradermal injection. After 0.5 h, the experimental group and Fenbid group were separately administered butylcholineterase aqueous solution and Fenbid in the inflammatory site of the right hindlimb, one time per day for a week. At 2 h, 6 h, 12 h, 24 h, 48 h, 72 h and 7 d after administration, the swelling degree of the right hindlimb of rats was separately measured by a vernier caliper.

Kunming mice = test: Analgesic experiment on mice by acetic acid twisting method; type: in vivo; conditions: for Inhibition rate (%): compared with saline solution group; for Writhing number: within 15 minutes after 0.6% acetic acid i.p.
Text: as §1
1) Reagents: acetic acid, manufactured by Guangdong Xinning Chemical Plant; butyrylcholinesterase (activity: 200 U per mL solution) prepared following the method of Example 2; Fenbid liniment (ibuprofen), produced by GlaxoSmithKline (China) Investment Co, Ltd., Product batch number: 04050471.
2) Animals: Kunming mice, 40, weight 20±2 g, of either sex.
Saline solution group (negative control group);
Experimental group 1, smeared with butyrylcholinesterase aqueous solution;
Experimental group 2, intraperitoneal injection with butyrylcholinesterase aqueous solution; and
Fenbid group (positive control group).
40 Kunming mice were randomly grouped with each group 10. The negative control group was administered 0.9% saline solution (0.1 mL/10 g) by intraperitoneal injection. An area of 1×1 cm of the hair of the mice of the experimental group 1 was cut in the back, and butyrylcholinesterase (enzyme activity: 200 U per mL solution) was smeared onto it. The experimental group 2 was administered 0.1 mL/10 g butyrylcholinesterase solution (enzyme activity: 200 U per mL solution) by intraperitoneal injection. An area of 1×1 cm of the hair of the mice of the positive control group was cut in the back, and Fenbid was smeared onto it. Each group of mice was fed in different cages. At 5 minutes after administration, following the method taught in Pharmacological Experimental Methodology (3rd Edition) (Xu Shuyun, et al., People's Health Publishing House, 2002, 1), each mouse was administered 0.6% acetic acid ([…]) by intraperitoneal injection, and the writhing number of mice within 15 minutes was recorded. The number was compared with that of saline solution group (0.9%) to calculate writhing inhibition rate in mice.

[2] = tested on: patient who caught a cold at early stage; test: Prevention and treatment of common cold; type: in vivo; conditions: 200 U glycerol solution nasal spray
Text: Acetylcholinesterase (enzyme activity 200 U) glycerol solution was sprayed to the nose of a patient who caught a cold at early stage, 3-5 times per day, one spray each time. Within an hour, symptoms such as headache and fever disappeared. Three days later, other symptoms disappeared, and overall wellbeing of the patient recovered to normal.

[3] = tested on: patients with wound caused by trauma, burn or scald; test: Prevention and treatment of trauma and inflammation; type: in vivo; conditions: enzyme activity 300 U, sprayed 1-3 times directly onto wound
Text: Acetylcholinesterase (enzyme activity 300 U) was sprayed 1-3 times directly onto a wound. If necessary, gauze pretreated with acetylcholinesterase may also cover the wound. […] Pains disappeared. If the wound was not already inflamed, inflammation was not observed, the wound recovered naturally, and a week later dead skin started to fall off. If the wound was inflamed, the inflammation would not develop; three days later, the wound recovered naturally. The mentioned-above wound was a wound caused by trauma, burn or scald.

[4] = tested on: patients with allergic rhinitis; test: Prevention and treatment of allergic rhinitis; type: in vivo; conditions: 300 U glycerol solution nasal spray, 3-5 times per day for a week; a month later, in most patients
Text: Acetylcholinesterase (enzyme activity 300 U) glycerol solution was sprayed to the nose of a patient, 3-5 times per day, one spray each time. The course of treatment lasted a week.

patient with tinea pedis = test: Prevention and treatment of tinea pedis; type: in vivo
Description: To 2 L of warm water lower than 40° C. was added 2 mL of acetylcholinesterase aqueous solution (enzyme activity 300 U), and stirred slowly. The feet of a patient were immersed in the solution for 30 minutes, two times per day for three consecutive days.

[5] = tested on: patients with swelling gingivitis and pain; test: Prevention and treatment of gingivitis; type: in vivo; conditions: 300 U
Description: Patients suffered from swelling gingivitis and pain. Sterile cotton swab was wetted by acetylcholinesterase (enzyme activity 300 U) and placed on the affected area for 10 min, one or two times per day.

[6] = intraperitoneal injection 0.1 mL/10 g, 200 U per mL

B1: Butyrylcholinesterase (protein, UniProt P06276 29-602, looked up)
Cholinesterase: EDDIIIATKNGKVRGMNLTVFGGTVTAFLGIPYAQPPLGRLRFKKPQSLTKWSDIWNATKYANSCCQNIDQSFPGFHGSEMWNPNTDLSEDCLYLNVWIPAPKPKNATVLIWIYGGGFQTGTSSLHVYDGKFLARVERVIVVSMNYRVGALGFLALPGNPEAPGNMGLFDQQLALQWVQKNIAAFGGNPKSVTLFGESAGAASVSLHLLSPGSHSLFTRAILQSGSFNAPWAVTSLYEARNRTLNLAKLTGCSRENETEIIKCLRNKDPQEILLNEAFVVPYGTPLSVNFGPTVDGDFLTDMPDILLELGQFKKTQILVGVNKDEGTAFLVYGAPGFSKDNNSIITRKEFQEGLKIFFPGVSEFGKESILFHYTDWVDDQRPENYREALGDVVGDYNFICPALEFTKKFSEWGNNAFFYYFEHRSSKLPWPEWMGVMHGYEIEFVFGLPLERRDNYTKAEEILSRSIVKRWANFAKYGNPNETQNNSTSWPVFKSTEQKYLTLNTESTRIMTKLRAQQCRFWTSFFPKVLEMTGNIDEAEWEWKAGFHRWNNYMMDWKNQFNDYTSKKESCVGL
- capacity of hydrolyzing SP (Substance P (SP)): has the capacity of hydrolyzing SP
- amount of product, with Fe^+3 (FIG. 3) compared with without Fe^+3 (FIG. 8) (Substance P (SP); 60 minutes): much more products having a molecular weight of 1104
- first restriction site (Substance P (SP)): between Leu^10 and Met^11
- molecular weight of products detected (Substance P (SP); in water without Fe^+3, FIGS. 6-9): 1217 and 1104
- molecular weight of product detected (Substance P (SP); with Fe^+3 in water, at 25 minutes): 1217
- molecular weight of new fragments detected (Substance P (SP); with Fe^+3 in water, at 60 minutes): 1104 and 900
- number of the patients with summer diarrhea [1]: decreased greatly
- Swelling degree of the right hind limb of rats (Wister rats; 2 h after administration): 0.74 ± 0.04
- Swelling degree of the right hind limb of rats (Wister rats; 6 h after administration): 0.84 ± 0.04
- Swelling degree of the right hind limb of rats (Wister rats; 12 h after administration): 0.87 ± 0.05
- Swelling degree of the right hind limb of rats (Wister rats; 24 h after administration): 0.83 ± 0.05
- Swelling degree of the right hind limb of rats (Wister rats; 48 h after administration): 0.74 ± 0.02
- Swelling degree of the right hind limb of rats (Wister rats; 72 h after administration): 0.76 ± 0.05
- Swelling degree of the right hind limb of rats (Wister rats; 7 d after administration): 0.67 ± 0.06
- swelling degree compared with the negative control group (Wister rats; at 48 h, 72 h and 7 d after administration, P<0.05): significantly decrease the swelling degree
- writhing number compared with the saline solution group (Kunming mice; either by intraperitoneal injection or by skin smearing, P<0.05): significantly decreased the writhing number
- Inhibition rate (%) (Kunming mice; [6]): 26.6%
- Writhing number (Kunming mice; [6]): 27.2 ± 9.50*Δ
- inhibition rate on writhing compared with Fenbid (Kunming mice; intraperitoneal injection, P<0.05): higher inhibition rate on writhing in mice than Fenbid
- Writhing number (Kunming mice; smeared onto 1×1 cm cut area of the back): 29.9 ± 5.17
- Inhibition rate (%) (Kunming mice; smeared onto the back, 200 U per mL): 24.0%

B2: Acetylcholinesterase (protein, UniProt P22303 32-614, looked up)
Acetylcholinesterase: EGREDAELLVTVRGGRLRGIRLKTPGGPVSAFLGIPFAEPPMGPRRFLPPEPKQPWSGVVDATTFQSVCYQYVDTLYPGFEGTEMWNPNRELSEDCLYLNVWTPYPRPTSPTPVLVWIYGGGFYSGASSLDVYDGRFLVQAERTVLVSMNYRVGAFGFLALPGSREAPGNVGLLDQRLALQWVQENVAAFGGDPTSVTLFGESAGAASVGMHLLSPPSRGLFHRAVLQSGAPNGPWATVGMGEARRRATQLAHLVGCPPGGTGGNDTELVACLRTRPAQVLVNHEWHVLPQESVFRFSFVPVVDGDFLSDTPEALINAGDFHGLQVLVGVVKDEGSYFLVYGAPGFSKDNESLISRAEFLAGVRVGVPQVSDLAAEAVVLHYTDWLHPEDPARLREALSDVVGDHNVVCPVAQLAGRLAAQGARVYAYVFEHRASTLSWPLWMGVPHGYEIEFIFGIPLDPSRNYTAEEKIFAQRLMRYWANFARTGDPNEPRDPKAPQWPPYTAGAQQYVSLDLRPLEVRRGLRAQACAFWNRFLPKLLSATDTLDEAERQWKAEFHRWSSYMVHWKNQFDHYSKQDRCSDL
- symptoms such as headache and fever ([2]; 3-5 times per day, within an hour): disappeared
- other symptoms ([2]; three days later): disappeared
- capacity of hydrolyzing SP (Substance P (SP)): has the capacity of hydrolyzing SP
- first restriction site (Substance P (SP)): between Leu^10 and Met^11
- hydrolysis of C-terminal Met^11 of SP (Substance P (SP); in water, 0-30 minutes, FIGS. 10-15): hydrolyzed quickly
- SP fragment finally left (Substance P (SP); in water, FIGS. 10-15): only a 1-5 peptide fragment was left
- pains [3]: disappeared
- wound and inflammation in patients [3]: reduced significantly
- symptoms such as nasal obstruction, sneezing, runny nose, nose itching [4]: disappeared, without relapse
- pain (patient with tinea pedis; 2 mL of 300 U solution in 2 L warm water, feet immersed 30 minutes, two times per day, three days): disappeared
- ringworm spot, smell and other symptoms (patient with tinea pedis; one week later): all gone
- relapse and side effects ([5]; cotton swab on affected area): without relapse and side effects
- inflammatory swelling ([5]; cotton swab on affected area 10 min, one or two times per day, two days later): disappeared
